Reference: US20240124536A1, “BASE EDITING OF TRANSTHYRETIN GENE” (Beam Therapeutics Inc., priority 2021, published 2024)
Strand notation (5' to 3'): a small letter for the sugar, then the base; units joined by * are phosphorothioate-linked, units joined directly phosphodiester-linked; [ ] holds rarer units or linkages, { } end groups; capitals alone tell only the bases. m = 2'-O-methyl; r = 2'-OH (RNA)

Key:
human TTR gene = experiment: Editing activity in human primary hepatocytes (gRNA + ABE8.8 mRNA co-transfection, NGS of PCR amplicons); type: cell-based; details: for Human hepatocytes - Editing %, 625, rep 1 / Human hepatocytes - Editing %, 625, rep 2: 625 ng/RNA/mL; for Human hepatocytes - Editing %, 1250, rep 1 / Human hepatocytes - Editing %, 1250, rep 2: 1250 ng/RNA/mL; for Human hepatocytes - Editing %, 2500, rep 1 / Human hepatocytes - Editing %, 2500, rep 2: 2500 ng/RNA/mL; for editing activity in human primary hepatocytes (in words): ABE8.8 mRNA co-transfection
Description: With this example, gRNA sequences were identified that permit ABE8.8 (and other ABE variants containing Streptococcus pyogenes Cas9, such as ABE7.10, or another Cas protein that can use the NGG PAM) to either: 1) disrupt the start codon, or 2) disrupt splice sites, whether donors or acceptors, via A→G editing within its editing window (roughly positions 4 to 7 in the 20-nt protospacer region of DNA). Five sequences were identified throughout the human TTR gene (Table 1). gRNAs were synthesized matching each of the protospacer sequences and otherwise conforming to the standard 100-nt Streptococcus pyogenes CRISPR gRNA sequence, with each gRNA molecule having a minimal degree of chemical modifications (specified in Table 1).
(§1) The mRNA, and corresponding amino acid, sequence of the ABE8.8 (MA004) used in shown below in Table 11. Three days after transfection, genomic DNA was harvested from the hepatocytes, and assessed for base editing with next-generation sequencing of PCR amplicons generated around the target splice site. […] See FIGS. 5A-5C, FIG. 6, and Tables 2-3.

[1] = test system: potential off-target candidate sites
Description: With a view towards establishing the safety of a base-editing therapy knocking down of TTR in the human liver in vivo, off-target mutagenesis analysis is assessed in primary human hepatocytes. […] The in vitro biochemical assay ONE-seq was used to generate a list of candidate off-target sites and to determine the propensity of a ribonucleoprotein comprising the ABE8.8 base editor protein and each of the three protospacer guides sequences (GA457, GA460, and GA461) to cleave oligonucleotides in a library.
For human ONE-seq libraries, the reference human genome (GRCh38, Ensembl v98, chromosomes ftp://ftp.ensembl.org/pub/release-98/fasta/homo_sapiens/dna/Homo_sapiens.GRCh38.dna.chromosome.{1-22,X,Y,MT}.fa and ftp://ftp.ensembl.org/pub/release-98/fasta/homo_sapiens/dna/Homo_sapiens.GRCh38.dna.nonchromosomal.fa), was searched for potential off-target sites with up to 6 mismatches to the protospacer sequence above, and sites with up to 4 mismatches plus up to 2 DNA or RNA bulges, using Cas-Designer v1.2 (http://www.rgenome.net/cas-designer/).
For each site, the total number of edited reads was normalized to the total number of edited reads assigned to the on-target site, and this ratio defines the ONE-seq score for the site. Sites were ranked by ONE-seq score, and those with a score equal to or larger than 0.001, were selected for validation. A score equal to or larger than 0.001 encompasses sites that have down to 1000-fold less editing activity in the biochemical assay compared to editing of the on-target site. This threshold is based on the premise that in cells, if there is 10000 on-target editing, 1/1000-fold less editing activity would translate to % 0.1% off-target editing, which falls below the lower limit of detection of editing by NGS.
(§2) Several candidate off-target sites were analyzed for off-target editing in human primary hepatocytes.

TTR on-target site = experiment: Off-target validation in human primary hepatocytes: editing at the on-target site; type: cell-based; details: for on-target site editing efficiency (in words): treated vs control, human primary hepatocytes
Description: as §2

[2] = test system: cynomolgus monkey TTR gene; experiment: Editing activity in cyno primary hepatocytes (gRNA + ABE8.8 mRNA transfection, NGS); type: cell-based; details: for Cyno hepatocytes - Editing %, 156.25: 156.25 ng/RNA/mL; for Cyno hepatocytes - Editing %, 312.5: 312.5 ng/RNA/mL; for Cyno hepatocytes - Editing %, 625: 625 ng/RNA/mL; for Cyno hepatocytes - Editing %, 1250: 1250 ng/RNA/mL; for Cyno hepatocytes - Editing %, 2500: 2500 ng/RNA/mL; for Cyno hepatocytes - Editing %, 5000: 5000 ng/RNA/mL; for editing activity in cynomolgus primary hepatocytes (in words): ABE8.8 mRNA co-transfection
Description: as §1

Molecule	Human hepatocytes - Editing %, 625, rep 1 (human TTR gene)	Human hepatocytes - Editing %, 625, rep 2 (human TTR gene)	Human hepatocytes - Editing %, 1250, rep 1 (human TTR gene)	Human hepatocytes - Editing %, 1250, rep 2 (human TTR gene)	Human hepatocytes - Editing %, 2500, rep 1 (human TTR gene)	Human hepatocytes - Editing %, 2500, rep 2 (human TTR gene)	editing activity in human primary hepatocytes (in words) (human TTR gene)	off-target editing at candidate off-target sites (in words) [1]	on-target site editing efficiency (in words) (TTR on-target site)	Cyno hepatocytes - Editing %, 156.25 [2]	Cyno hepatocytes - Editing %, 312.5 [2]	Cyno hepatocytes - Editing %, 625 [2]	Cyno hepatocytes - Editing %, 1250 [2]	Cyno hepatocytes - Editing %, 2500 [2]	Cyno hepatocytes - Editing %, 5000 [2]	editing activity in cynomolgus primary hepatocytes (in words) [2]	further results
GA457: Human TTR guide RNA, spacer GCCAUCCUGCCAAGAAUGAG, gRNA SEQ ID NO: 11 (nucleic acid, chemistry not given here) guide: GCCATCCTGCCAAGAATGAGGTTTTAGAGCTAGAAATAGCAAGTTAAAATAAGGCTAGTCCGTTATCAACTTGAAAAAGTGGCACCGAGTCGGTGCTTTT	17.24%	15.39%	26.49%	24.86%	33.96%	31.31%	high editing activity	little to no editing	high editing efficiency								net editing at all off-target sites ([1]; 47 candidate off-target sites, human primary hepatocytes): less than 0.40; % Editing - human primary hepatocytes, Net (TTR on-target site; On-target GCCATCCTGCCAAGAATGAG): 54.1%; % Editing - human primary hepatocytes, Treated (TTR on-target site; On-target GCCATCCTGCCAAGAATGAG): 54.21%
GA460: Human/Cyno TTR guide RNA, spacer UAUAGGAAAACCAGUGAGUC, gRNA SEQ ID NO: 14 (nucleic acid, chemistry not given here) guide: TATAGGAAAACCAGTGAGTCGTTTTAGAGCTAGAAATAGCAAGTTAAAATAAGGCTAGTCCGTTATCAACTTGAAAAAGTGGCACCGAGTCGGTGCTTTT	23.77%	22.27%	38.33%	35.8%	47.61%	47.79%	high editing activity	little to no off-target editing	high editing efficiency	1.62%	11.22%	18.44%	31.71%	38.25%	40.16%	high editing activity	SUM Editing % - Human Primary Hepatocytes, Treat rep 1 (TTR on-target site; On-target TATAGGAAAACCAGTGAGTC): 76.4%; SUM Editing % - Human Primary Hepatocytes, Treat rep 2 (TTR on-target site; On-target TATAGGAAAACCAGTGAGTC): 74.3%
GA461: Human/Cyno TTR guide RNA, spacer UACUCACCUCUGCAUGCUCA, gRNA SEQ ID NO: 15 (nucleic acid, chemistry not given here) guide: TACTCACCTCTGCATGCTCAGTTTTAGAGCTAGAAATAGCAAGTTAAAATAAGGCTAGTCCGTTATCAACTTGAAAAAGTGGCACCGAGTCGGTGCTTTT	21.81%	22.31%	32.82%	32.38%	40.42%	39.43%	high editing activity	little to no off-target editing	high editing efficiency	0.07%	7.45%	13.16%	19.46%	29.8%	37.53%	high editing activity	SUM Editing % - Human Primary Hepatocytes, Treat rep 2 (TTR on-target site; On-target TACTCACCTCTGCATGCTCA): 58.9%
GA458: Cyno TTR guide RNA, cynomolgus equivalent of GA457, spacer GCCAUCCUGCCAAGAACGAG, gRNA SEQ ID NO: 29 (nucleic acid) guide: mG*mC*mC*rArUrCrCrUrGrCrCrArArGrArArCrGrArGrGrUrUrUrUrArGrArGrCrUrArGrArArArUrArGrCrArArGrUrUrArArArArUrArArGrGrCrUrArGrUrCrCrGrUrUrArUrCrArArCrUrUrGrArArArArArGrUrGrGrCrArCrCrGrArGrUrCrGrGrUrGrCrU*mU*mU*mU										6.06%	10.65%	16.07%	22.74%	27.25%	35.91%	high editing activity	
GA459: Human TTR guide RNA, spacer GCAACUUACCCAGAGGCAAA, gRNA SEQ ID NO: 13 (nucleic acid, chemistry not given here) guide: GCAACTTACCCAGAGGCAAAGTTTTAGAGCTAGAAATAGCAAGTTAAAATAAGGCTAGTCCGTTATCAACTTGAAAAAGTGGCACCGAGTCGGTGCTTTT	3.79%	3.89%	5.46%	6.15%	8.5%	8.69%		little to no off-target editing	high editing efficiency								SUM Editing % - Human Primary Hepatocytes, Treat rep 1 (TTR on-target site; On-target GCAACTTACCCAGAGGCAAA): 14.17%; SUM Editing % - Human Primary Hepatocytes, Treat rep 2 (TTR on-target site; On-target GCAACTTACCCAGAGGCAAA): 14.29%
